According to patent publication US20110150884A1 (ST VINCENT S INSTITUTE OF MEDICAL RESEARCH, published 2011):
Substitutions are numbered along the chain they refer to. Names may count otherwise.

B1: IL-3, P08700 20-152 (ligand, UniProt P08700 20-152, looked up)
chain: APMTQTTPLKTSWVNCSNMIDEIITHLKQPPLPLLDFNNLNGEDQDILMENNLRRPNLEAFNRAVKSLQNASAIESILKNLLPCLPLATAAPTRHPIHIKDGDWNEFRRKLTFYLKTLENAQAQQTTLSLAIF
modifications: here or on the partner: radio-iodinated (125I) in the COS cell binding assays
B2: sβc N346Q, soluble extracellular domain of human βc with the third N-glycosylation site removed (receptor, UniProt P32927 17-443, looked up)
chain: WERSLAGAEETIPLQTLRCYNDYTSHITCRWADTQDAQRLVNVTLIRRVNEDLLEPVSCDLSDDMPWSACPHPRCVPRRCVIPCQSFVVTDVDYFSFQPDRPLGTRLTVTLTQHVQPPEPRDLQISTDQDHFLLTWSVALGSPQSHWLSPGDLEFEVVYKRLQDSWEDAAILLSNTSQATLGPEHLMPSSTYVARVRTRLAPGSRLSGRPSKWSPEVCWDSQPGDEAQPQNLECFFDGAAVLSCSWEVRKEVASSVSFGLFYKPSPDAGEEECSPVLREGLGSLHTRHHCQIPVPDPATHGQYIVSVQPRRAEKHIKSSVNIQMAPPSLQVTKDGDSYSLRWETMKMRYEHIDHTFEIQYRKDTATWKDSKTETLQNAHSMALPALEPSTRYWARVRVRTSRTGYNGIWSEWSEARSWDTESVLPMW
modifications: N-linked carbohydrate at Asn58 (NAG-NAG-MAN) and Asn191 (NAG)
notes: extracellular domain; Intertwined homodimer; Cloned into pIBV5-His; also called sβc ΔN3; GM-CSF βc chain
B3: sGM-CSFRα, soluble extracellular domain of the GM-CSF receptor alpha chain, expressed in Sf21 insect cells (receptor, human, UniProt P15509 23-320, looked up)
chain: EKSDLRTVAPASSLNVRFDSRTMNLSWDCQENTTFSKCFLTDKKNRVVEPRLSNNECSCTFREICLHEGVTFEVHVNTSQRGFQQKLLYPNSGREGTAAQNFSCFIYNADLMNCTWARGPTAPRDVQYFLYIRNSKRRREIRCPYYIQDSGTHVGCHLDNLSGLTSRNYFLVNGTSREIGIQFFDSLLDTKKIERFNPPSNVTVRCNTTHCLVRWKQPRTYQKLSYLDFQYQLDVHRKNTQPGTENLLINVSGDLENRYNFPSSEPRAKHSVKIRAADVRILNWSSWSEAIEFGSDDG
modifications: N-linked carbohydrate at Asn229 (modeled as NAG-NAG)
notes: extracellular domain; Cloned into the pIBV5-His vector; Residues 218-316 (domain 2) were traced in the crystal; also called GMRα

How the values were obtained:
[1] = biological target: IL-3 receptor on cells: IL3Rα co-expressed with the βc4 Gpoly-A mutant (M7-βc) (human), P26951; assay: cell-based or functional assay
Chain of IL-3 receptor on cells: IL3Rα co-expressed with the βc4 Gpoly-A mutant (M7-βc) (human), P26951 (P26951 19-378, change not shown): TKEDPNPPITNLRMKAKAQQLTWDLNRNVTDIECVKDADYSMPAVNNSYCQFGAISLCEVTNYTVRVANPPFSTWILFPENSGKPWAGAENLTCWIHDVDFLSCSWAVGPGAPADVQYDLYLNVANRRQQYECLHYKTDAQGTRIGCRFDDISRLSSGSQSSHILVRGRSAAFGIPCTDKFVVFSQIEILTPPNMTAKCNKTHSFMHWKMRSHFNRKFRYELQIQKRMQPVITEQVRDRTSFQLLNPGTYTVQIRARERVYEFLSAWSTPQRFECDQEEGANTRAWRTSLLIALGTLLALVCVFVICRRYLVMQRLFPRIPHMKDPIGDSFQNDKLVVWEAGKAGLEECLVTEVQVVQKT

[2] = biological target: the molecule itself; assay: X-ray crystal structure, 3.3 Å
Procedure: (§1) The structure was determined by molecular replacement using the method of Storoni et al, Acta Crystallogr. D 60:432, 2004.
(§2) A homology model of domain 2 of the alpha chain was built into this density. […] D Biol. Crystallogr. 50:760, 1994 and refinement using the method of Murshudov et al, Acta Crystallogr. D 53:240, 1997. […] During the final refinement step each subunit was treated as a rigid body for the purposes of TLS (translation, libration and screw rotation tensors) refinement to account for overall differences in displacements between the molecules and anisotropy in the data (Winn et al, Acta Crystallogr. D 57:122, 2001; Painter and Merritt, Acta Crystallogr. D 62:439, 2006).

[3] = biological target: B2; assay: X-ray crystal structure, 3.3 Å
Procedure: as §1, §2

[4] = biological target: T1, wild-type sβc, soluble extracellular domain of human βc (human, UniProt P32927 17-443); assay: ternary complex formation of soluble proteins (all three present); wild type as the reference
T1 construct: extracellular domain; Expressed in Sf21 cells
T1 sequence (looked up): B2 chain with Q330N

Binder: B1
- ED50 of proliferation of CTL-EN cells in response to IL-3 [1]: 0.0103 µg/mL
- fold increase of ED50 against wild type βc [1]: 413 fold

Binder: B2
- binding result [2]: binds

Binder: B3
- binding result [3]: binds
- binding result [4]: binds
